Experimental data as given in patent US20210139548A1 (published 2021).
*1 amine or outer side, *2 acyl side, *3 side chain or, on linkers, in order; H or OH if unused. Side-chain parts run from the residue outwards. The star is where a group is joined. C18 diacid = O=C(O)CCCCCCCCCCCCCCCCC(=O)*; γGlu = O=C(O)[C@H](CCC(=O)[*:2])N[*:1]; Isovaleryl = CC(C)CC(=O)*; AEEA = NCCOCCOCC(=O)O

T1: human neuropeptide Y2 receptor (human, UniProt P49146 1-381)
T1 sequence (looked up): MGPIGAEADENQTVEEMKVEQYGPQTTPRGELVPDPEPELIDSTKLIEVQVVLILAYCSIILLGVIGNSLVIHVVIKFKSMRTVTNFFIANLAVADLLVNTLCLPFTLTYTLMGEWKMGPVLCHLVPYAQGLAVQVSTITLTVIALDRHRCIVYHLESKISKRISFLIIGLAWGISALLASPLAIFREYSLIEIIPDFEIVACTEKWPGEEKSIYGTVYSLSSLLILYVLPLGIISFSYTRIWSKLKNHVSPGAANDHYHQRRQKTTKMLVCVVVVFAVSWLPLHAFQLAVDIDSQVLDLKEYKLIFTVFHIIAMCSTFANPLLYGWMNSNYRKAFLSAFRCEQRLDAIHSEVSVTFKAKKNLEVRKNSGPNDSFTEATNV

T2: human NPY1 receptor (human, UniProt P25929 1-384)
T2 sequence (looked up): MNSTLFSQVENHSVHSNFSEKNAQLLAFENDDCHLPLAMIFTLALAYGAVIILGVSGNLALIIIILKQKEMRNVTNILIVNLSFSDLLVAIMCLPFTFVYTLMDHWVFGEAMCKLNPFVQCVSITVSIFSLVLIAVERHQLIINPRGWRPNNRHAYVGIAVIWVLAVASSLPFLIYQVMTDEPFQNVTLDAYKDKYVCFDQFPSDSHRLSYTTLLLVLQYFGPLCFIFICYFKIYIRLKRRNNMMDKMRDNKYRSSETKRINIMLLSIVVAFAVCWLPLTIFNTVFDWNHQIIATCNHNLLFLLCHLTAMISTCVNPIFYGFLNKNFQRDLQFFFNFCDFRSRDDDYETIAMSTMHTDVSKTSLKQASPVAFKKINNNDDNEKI

T3: human NPY5 receptor (human, UniProt Q15761 1-445)
T3 sequence (looked up): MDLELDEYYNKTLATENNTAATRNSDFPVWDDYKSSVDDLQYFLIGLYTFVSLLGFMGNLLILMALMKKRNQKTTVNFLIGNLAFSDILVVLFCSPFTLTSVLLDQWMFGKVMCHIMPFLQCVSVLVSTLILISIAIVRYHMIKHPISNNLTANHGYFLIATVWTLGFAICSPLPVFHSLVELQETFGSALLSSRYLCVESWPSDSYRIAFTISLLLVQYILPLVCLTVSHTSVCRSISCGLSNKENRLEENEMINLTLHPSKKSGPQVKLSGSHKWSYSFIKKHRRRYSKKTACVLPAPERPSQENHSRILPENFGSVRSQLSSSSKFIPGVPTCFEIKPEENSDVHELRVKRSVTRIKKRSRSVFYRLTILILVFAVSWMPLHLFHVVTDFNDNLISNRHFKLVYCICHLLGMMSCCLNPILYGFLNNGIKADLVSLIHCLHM

B1: Ref. 3 (peptide)
peptide: Isovaleryl-RPEK([AEEA-AEEA-γGlu-C18 diacid])PGEDASPEELQRYYVSLRAYYNWLTRQRY-NH2
SMILES: CC(C)CC(=O)N[C@@H](CCCNC(=N)N)C(=O)N1CCC[C@H]1C(=O)N[C@@H](CCC(=O)O)C(=O)N[C@@H](CCCCNC(=O)COCCOCCNC(=O)COCCOCCNC(=O)CC[C@H](NC(=O)CCCCCCCCCCCCCCCCC(=O)O)C(=O)O)C(=O)N1CCC[C@H]1C(=O)NCC(=O)N[C@@H](CCC(=O)O)C(=O)N[C@@H](CC(=O)O)C(=O)N[C@@H](C)C(=O)N[C@@H](CO)C(=O)N1CCC[C@H]1C(=O)N[C@@H](CCC(=O)O)C(=O)N[C@@H](CCC(=O)O)C(=O)N[C@@H](CC(C)C)C(=O)N[C@@H](CCC(N)=O)C(=O)N[C@@H](CCCNC(=N)N)C(=O)N[C@@H](Cc1ccc(O)cc1)C(=O)N[C@@H](Cc1ccc(O)cc1)C(=O)N[C@H](C(=O)N[C@@H](CO)C(=O)N[C@@H](CC(C)C)C(=O)N[C@@H](CCCNC(=N)N)C(=O)N[C@@H](C)C(=O)N[C@@H](Cc1ccc(O)cc1)C(=O)N[C@@H](Cc1ccc(O)cc1)C(=O)N[C@@H](CC(N)=O)C(=O)N[C@@H](Cc1c[nH]c2ccccc12)C(=O)N[C@@H](CC(C)C)C(=O)N[C@H](C(=O)N[C@@H](CCCNC(=N)N)C(=O)N[C@@H](CCC(N)=O)C(=O)N[C@@H](CCCNC(=N)N)C(=O)N[C@@H](Cc1ccc(O)cc1)C(N)=O)[C@@H](C)O)C(C)C

Each binder was assayed against T1, human neuropeptide Y2 receptor (assay: cell-based or functional assay).

For B1, the “EC50 (hY2 cAMP, HTRF cAMP Gi assay)” value was 0.375 nM.

Target: T1, human neuropeptide Y2 receptor
Test: cell-based or functional assay
Remark: another data set of the same source

In order of rising “EC50 (HTRF cAMP Gi assay)” value:
1. Isovaleryl-APEK([AEEA-AEEA-γGlu-C18 diacid])PEADASPEEIQRYYVSLRHYYNWLTRQRY-NH2 [Compound 53]  0.119 nM
2. Isovaleryl-APAK([AEEA-AEEA-γGlu-C18 diacid])PEEDASPEEIQRYYVSLRHYYNWLTRQRY-NH2 [Compound 23]  0.15 nM

What follows are binders tested against T2, human NPY1 receptor (assay: cell-based or functional assay).

Isovaleryl-APAK([AEEA-AEEA-γGlu-C18 diacid])PEEDASPEEIQRYYVSLRHYYNWLTRQRY-NH2 [Compound 23] and Isovaleryl-APEK([AEEA-AEEA-γGlu-C18 diacid])PEADASPEEIQRYYVSLRHYYNWLTRQRY-NH2 [Compound 53] cannot be ordered by “EC50 (HTRF cAMP Gi assay)” value: greater than 5000 nM for the first, greater than 5000 nM for the second.

The binders below were run against human NPY4 receptor (human, UniProt P50391 1-375) (assay: cell-based or functional assay).
Chain of human NPY4 receptor (P50391 whole entry): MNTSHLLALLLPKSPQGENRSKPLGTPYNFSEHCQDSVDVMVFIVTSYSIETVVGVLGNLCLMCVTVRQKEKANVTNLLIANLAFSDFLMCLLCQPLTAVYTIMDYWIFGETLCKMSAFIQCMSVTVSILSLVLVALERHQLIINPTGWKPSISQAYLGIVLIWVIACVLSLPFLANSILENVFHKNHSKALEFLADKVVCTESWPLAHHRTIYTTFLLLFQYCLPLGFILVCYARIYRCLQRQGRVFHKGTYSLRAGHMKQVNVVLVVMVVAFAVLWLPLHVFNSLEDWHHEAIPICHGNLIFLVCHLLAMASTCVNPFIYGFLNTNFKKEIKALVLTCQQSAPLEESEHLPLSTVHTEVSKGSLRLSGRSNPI

Isovaleryl-APAK([AEEA-AEEA-γGlu-C18 diacid])PEEDASPEEIQRYYVSLRHYYNWLTRQRY-NH2 [Compound 23] and Isovaleryl-APEK([AEEA-AEEA-γGlu-C18 diacid])PEADASPEEIQRYYVSLRHYYNWLTRQRY-NH2 [Compound 53] cannot be ordered by “EC50 (HTRF cAMP Gi assay)” value: greater than 5000 nM for the first, greater than 5000 nM for the second.

Each binder was assayed against T3, human NPY5 receptor (assay: cell-based or functional assay).

Isovaleryl-APAK([AEEA-AEEA-γGlu-C18 diacid])PEEDASPEEIQRYYVSLRHYYNWLTRQRY-NH2 [Compound 23] and Isovaleryl-APEK([AEEA-AEEA-γGlu-C18 diacid])PEADASPEEIQRYYVSLRHYYNWLTRQRY-NH2 [Compound 53] cannot be ordered by “EC50 (HTRF cAMP Gi assay)” value: greater than 5000 nM for the first, greater than 5000 nM for the second.

The binders below were run against T1, human neuropeptide Y2 receptor (assay: ratio of apparent Ki, pH 6.1-6.2 over pH 7.1-7.2).
Procedure: (§1) The filtration RLB assay was carried out in 96-well plates in a final volume of 100 μl per well. Freeze-dried test peptides were dissolved in 100% dimethyl sulfoxide (DMSO) to stock solutions of 1 mM and serial dilutions were performed in assay buffer (50 mM HEPES, 5 mM MgCl₂, 1 mM CaCl₂, pH 7.4) containing 0.2% ovalbumin. […] Next, 80 μL membranes (HTS066M, ChemiSCREEN™ Human Neuropeptide Y2 Receptor Membrane Preparation, CHEMICON) were added to each well to give a final protein concentration of 0.5 μg/well. The plates were sealed and incubated at room temperature for 2 hours in a plate shaker set at 400 rpm. The incubation was stopped by vacuum filtration onto 0.5% poly-ethylene amine (PEI) presoaked GF/C filters using a 96-well FilterMate™ harvester (Perkin Elmer) followed by four washes with 300 μl/well ice-cold wash buffer (50 mM HEPES, 500 mM NaCl, pH7.4). Filter plates were then dried for 60 min at room temperature and the bottom of the plates was sealed with backing tape UniFilter-96. Finally, 50 μl/well scintillation counter cocktail (Microscint20, Packard) was added and the radioactivity was counted in the Packard TopCount NXT scintillation counter. IC₅₀ values (the half maximal inhibitory concentration of the agonist) were calculated by nonlinear regression analysis of sigmoidal dose-response curves.
(§2) Peptides (as TFA salts) were weighed out in a filter unit (Mini-UniPrep Syringeless Filter 0.45 μm, Whatman), and 0.1 M sodium diphosphate buffer at pH 6.4 or 7.4, respectively, or 0.2 M TRIS buffer at pH 8.3 was added to achieve 10 mg/ml final concentration. The peptide was (partially) dissolved by shaking the filter unit horizontally at approx. 400 rpm for 2 hours at room temperature. The sample was filtered to remove any insoluble particles.

In order of rising “RLB ratio (RLB6/RLB7)” value:
1. Isovaleryl-APAK([AEEA-AEEA-γGlu-C18 diacid])PEEDASPEEIQRYYVSLRHYYNWLTRQRY-NH2 [Compound 23]  1
2. Isovaleryl-APEK([AEEA-AEEA-γGlu-C18 diacid])PEADASPEEIQRYYVSLRHYYNWLTRQRY-NH2 [Compound 53]  1.1

What follows are binders tested against T1, human neuropeptide Y2 receptor (assay: ratio of apparent Ki, pH 8.1-8.2 over pH 7.1-7.2).
Procedure: as §1, §2

In order of falling “RLB ratio (RLB8/RLB7)” value:
1. Isovaleryl-APAK([AEEA-AEEA-γGlu-C18 diacid])PEEDASPEEIQRYYVSLRHYYNWLTRQRY-NH2 [Compound 23]  1
2. Isovaleryl-APEK([AEEA-AEEA-γGlu-C18 diacid])PEADASPEEIQRYYVSLRHYYNWLTRQRY-NH2 [Compound 53]  0.8

Each binder was assayed against T1, human neuropeptide Y2 receptor (assay: radioligand competition (125I-PYY(1-36)), hNPY2R membranes).
Summary of the method: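 Commercial human Y2 receptor membranes (0.5 μg protein/well) were incubated with peptide for 2 h at room temperature in 50 mM HEPES, 5 mM MgCl₂, 1 mM CaCl₂, pH 7.4, with 0.2% ovalbumin. Bound radioligand was separated on PEI-soaked GF/C filters and counted by scintillation, and IC₅₀ came from nonlinear sigmoidal regression.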

In order of falling Ki:
1. B1  1.69 nM
2. Isovaleryl-APAK([AEEA-AEEA-γGlu-C18 diacid])PEEDASPEEIQRYYVSLRHYYNWLTRQRY-NH2 [Compound 23]  0.63 nM
3. Isovaleryl-APEK([AEEA-AEEA-γGlu-C18 diacid])PEADASPEEIQRYYVSLRHYYNWLTRQRY-NH2 [Compound 53]  0.24 nM

These binders were tested against T1, human neuropeptide Y2 receptor (assay: RLB 6: apparent Ki of filtrate after incubation at pH 6.1-6.2).

In order of rising Ki:
1. Isovaleryl-APEK([AEEA-AEEA-γGlu-C18 diacid])PEADASPEEIQRYYVSLRHYYNWLTRQRY-NH2 [Compound 53]  3.4 nM
2. Isovaleryl-APAK([AEEA-AEEA-γGlu-C18 diacid])PEEDASPEEIQRYYVSLRHYYNWLTRQRY-NH2 [Compound 23]  6.3 nM

The binders below were run against T1, human neuropeptide Y2 receptor (assay: RLB 7: apparent Ki of filtrate after incubation at pH 7.1-7.2).
Procedure: as §1, §2

In order of falling Ki:
1. Isovaleryl-APAK([AEEA-AEEA-γGlu-C18 diacid])PEEDASPEEIQRYYVSLRHYYNWLTRQRY-NH2 [Compound 23]  6.3 nM
2. Isovaleryl-APEK([AEEA-AEEA-γGlu-C18 diacid])PEADASPEEIQRYYVSLRHYYNWLTRQRY-NH2 [Compound 53]  3.1 nM

These binders were tested against T1, human neuropeptide Y2 receptor (assay: RLB 8: apparent Ki of filtrate after incubation at pH 8.1-8.2).
Procedure: as §1, §2

In order of rising Ki:
1. Isovaleryl-APEK([AEEA-AEEA-γGlu-C18 diacid])PEADASPEEIQRYYVSLRHYYNWLTRQRY-NH2 [Compound 53]  2.5 nM
2. Isovaleryl-APAK([AEEA-AEEA-γGlu-C18 diacid])PEEDASPEEIQRYYVSLRHYYNWLTRQRY-NH2 [Compound 23]  6.3 nM

These binders were tested against T1, human neuropeptide Y2 receptor (assay: radioligand competition (125I-PYY(1-36)), hY2R membranes; DMSO stock).
Procedure: as §1

In order of rising Ki:
1. Isovaleryl-APEK([AEEA-AEEA-γGlu-C18 diacid])PEADASPEEIQRYYVSLRHYYNWLTRQRY-NH2 [Compound 53]  2 nM
2. Isovaleryl-APAK([AEEA-AEEA-γGlu-C18 diacid])PEEDASPEEIQRYYVSLRHYYNWLTRQRY-NH2 [Compound 23]  4.9 nM
